The results in this text go back to PMC5457685, “Pellino-1 promotes lung carcinogenesis via the stabilization of Slug and Snail through K63-mediated polyubiquitination” (Cell Death and Differentiation, 2016).

For the assay, the target named is T1, His-tagged Pellino-1 (human, UniProt Q96FA3 1-418).
T1 construct: Pellino-1, human; Pellino-1 FL subcloned into a His6-tagged fusion plasmid; The pull-down text names only 'His-Pellino-1'; also called His-Pellino-1; source: purified His-tagged protein
T1 sequence (looked up): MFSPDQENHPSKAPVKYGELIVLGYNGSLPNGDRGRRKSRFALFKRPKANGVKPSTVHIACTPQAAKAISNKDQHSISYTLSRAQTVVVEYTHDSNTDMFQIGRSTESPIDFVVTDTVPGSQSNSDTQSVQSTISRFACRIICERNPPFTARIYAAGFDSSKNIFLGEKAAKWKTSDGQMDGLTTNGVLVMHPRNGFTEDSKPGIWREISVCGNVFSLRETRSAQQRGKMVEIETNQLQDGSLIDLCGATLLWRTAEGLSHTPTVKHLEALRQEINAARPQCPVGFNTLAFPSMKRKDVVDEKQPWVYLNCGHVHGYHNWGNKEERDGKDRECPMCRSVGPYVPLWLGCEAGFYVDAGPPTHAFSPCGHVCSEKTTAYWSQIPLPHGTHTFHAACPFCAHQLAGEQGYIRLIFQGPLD
Nature of the assay: pull-down; GST-Slug or GST-Snail adsorbed onto glutathione beads, incubated with purified His-tagged Pellino-1; bound proteins immunoblotted. Conditions: both partners purified. In general terms: A western blot detects proteins with antibodies after separation by electrophoresis.

B1: GST–Slug fusion protein (natural protein, human, UniProt O43623 1-268, looked up)
chain: MPRSFLVKKHFNASKKPNYSELDTHTVIISPYLYESYSMPVIPQPEILSSGAYSPITVWTTAAPFHAQLPNGLSPLSGYSSSLGRVSPPPPSDTSSKDHSGSESPISDEEERLQSKLSDPHAIEAEKFQCNLCNKTYSTFSGLAKHKQLHCDAQSRKSFSCKYCDKEYVSLGALKMHIRTHTLPCVCKICGKAFSRPWLLQGHIRTHTGEKPFSCPHCNRAFADRSNLRAHLQTHSDVKKYQCKNCSKTFSRMSLLHKHEESGCCVAH
notes: Slug, human; pGEX-KG vector encoding GST-tagged human Slug (gift); source: GST fusion protein (pGEX-KG vector) adsorbed onto glutathione beads
With B1, the binding result is given as “binds”.
